Assay results: article PMC2685181 (The Journal of neuroscience : the official journal of the …, 2008)
Where no end group is shown, it is not given here.

B1: GST_I-II loop with seven alanines inserted between F376 and L377 (domain or fragment, rabbit, UniProt P27884 369-413, looked up)
chain: RVENRRAFAAAAAAALKLRRQQQIERELNGYMEWISKAEEVILAEDETDVEQ
B2: GST_I-II loop with seven glycines inserted between F376 and L377 (domain or fragment, rabbit, UniProt P27884 369-413, looked up)
chain: RVENRRAFGGGGGGGLKLRRQQQIERELNGYMEWISKAEEVILAEDETDVEQ
modifications: not fully specified

Biological target: WT β1b_core (core region of Ca2+ channel β1b subunit, G58-T418) (human, UniProt Q02641-1 58-418)
Experiment: pull-down

WT β1b_core (core region of Ca2+ channel β1b subunit, G58-T418), sequence (Q02641 58-418): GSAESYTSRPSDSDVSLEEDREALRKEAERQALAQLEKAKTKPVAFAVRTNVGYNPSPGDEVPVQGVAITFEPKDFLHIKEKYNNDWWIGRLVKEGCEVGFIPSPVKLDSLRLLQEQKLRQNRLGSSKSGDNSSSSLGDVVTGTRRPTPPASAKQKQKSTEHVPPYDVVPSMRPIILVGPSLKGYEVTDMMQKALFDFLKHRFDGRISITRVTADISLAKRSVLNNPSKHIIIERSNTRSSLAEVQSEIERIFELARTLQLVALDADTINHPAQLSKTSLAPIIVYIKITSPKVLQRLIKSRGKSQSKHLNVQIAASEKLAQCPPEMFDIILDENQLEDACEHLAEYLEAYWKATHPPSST

Binding result, binds:
RVENRRAFAAAAALKLRRQQQIERELNGYMEWISKAEEVILAEDETDVEQ (domain or fragment, rabbit, UniProt P27884 369-413, looked up) [GST_I-II loop with five alanines inserted between F376 and L377]
B1
B2
RVENRRAFGGGGGLKLRRQQQIERELNGYMEWISKAEEVILAEDETDVEQ (domain or fragment, rabbit, UniProt P27884 369-413, looked up, not fully specified) [GST_I-II loop with five glycines inserted between F376 and L377]
